The chains are these.
T1: FlhA (Salmonella enterica, UniProt P40729 1-692)
T1 construct: FlhA, Salmonella enterica, transmembrane export gate protein; source: Salmonella SJW1368, pTrc99A-based plasmid, in DDM- or LMNG-solubilised membranes; co-purified
T1 sequence: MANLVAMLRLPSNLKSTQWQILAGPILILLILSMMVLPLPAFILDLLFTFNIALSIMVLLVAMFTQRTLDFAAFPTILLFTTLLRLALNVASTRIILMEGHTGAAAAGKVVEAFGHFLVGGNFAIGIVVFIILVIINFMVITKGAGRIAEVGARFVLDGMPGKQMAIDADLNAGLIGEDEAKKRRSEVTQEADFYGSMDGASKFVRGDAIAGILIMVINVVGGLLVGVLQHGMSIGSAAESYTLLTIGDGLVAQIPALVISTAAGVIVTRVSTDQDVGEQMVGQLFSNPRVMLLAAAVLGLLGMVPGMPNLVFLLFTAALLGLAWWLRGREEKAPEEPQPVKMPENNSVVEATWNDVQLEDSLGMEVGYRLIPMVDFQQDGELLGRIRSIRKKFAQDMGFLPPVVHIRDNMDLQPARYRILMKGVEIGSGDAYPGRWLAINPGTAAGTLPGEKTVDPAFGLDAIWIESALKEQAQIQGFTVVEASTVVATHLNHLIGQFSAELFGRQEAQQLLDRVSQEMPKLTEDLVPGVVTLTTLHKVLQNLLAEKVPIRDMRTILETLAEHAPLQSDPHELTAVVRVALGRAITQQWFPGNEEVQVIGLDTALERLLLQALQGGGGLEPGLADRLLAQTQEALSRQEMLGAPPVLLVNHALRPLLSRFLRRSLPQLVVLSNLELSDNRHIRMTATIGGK

T2: FlhB (Salmonella enterica, UniProt P40727 1-383)
T2 construct: FlhB, Salmonella enterica, transmembrane export gate protein; its C-terminal cytoplasmic domain undergoes autocleavage between Asp-269 and Pro270 as printed; source: Salmonella SJW1368, pTrc99A-based plasmid, in DDM- or LMNG-solubilised membranes; co-purified
T2 sequence: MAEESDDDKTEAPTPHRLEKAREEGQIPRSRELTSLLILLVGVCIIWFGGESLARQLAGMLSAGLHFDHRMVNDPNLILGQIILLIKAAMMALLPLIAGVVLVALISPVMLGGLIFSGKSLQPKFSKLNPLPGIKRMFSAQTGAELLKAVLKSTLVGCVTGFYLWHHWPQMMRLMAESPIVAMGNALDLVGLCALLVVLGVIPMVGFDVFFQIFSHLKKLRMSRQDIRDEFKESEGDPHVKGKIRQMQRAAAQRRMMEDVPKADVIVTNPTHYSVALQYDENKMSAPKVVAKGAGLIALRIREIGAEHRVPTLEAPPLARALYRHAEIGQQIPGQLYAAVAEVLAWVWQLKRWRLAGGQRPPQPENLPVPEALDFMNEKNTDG

T3: FliR-FLAG (Salmonella enterica, UniProt P54702 1-264)
T3 construct: FliR, Salmonella enterica, transmembrane export gate protein; also called FLAG-FliR (as printed in the methods); source: Salmonella SJW1368, pTrc99A-based plasmid, in DDM- or LMNG-solubilised membranes; co-purified (Ni-NTA, anti-FLAG gel, SEC)
T3 sequence: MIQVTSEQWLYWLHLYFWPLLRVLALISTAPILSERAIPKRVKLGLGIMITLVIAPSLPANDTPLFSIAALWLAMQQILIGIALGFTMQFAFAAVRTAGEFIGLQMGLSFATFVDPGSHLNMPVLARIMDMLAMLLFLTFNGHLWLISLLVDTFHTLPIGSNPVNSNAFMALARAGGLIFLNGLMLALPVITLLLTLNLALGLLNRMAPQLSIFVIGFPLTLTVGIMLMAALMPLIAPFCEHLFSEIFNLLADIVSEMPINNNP

B1: FliG-His (natural protein)
chain: MSNLSGTDKSVILLMTIGEDRAAEVFKHLSTREVQALSTAMANVRQISNKQLTDVLSEFEQEAEQFAALNINANEYLRSVLVKALGEERASSLLEDILETRDTTSGIETLNFMEPQSAADLIRDEHPQIIATILVHLKRSQAADILALFDERLRHDVMLRIATFGGVQPAALAELTEVLNGLLDGQNLKRSKMGGVRTAAEIINLMKTQQEEAVITAVREFDGELAQKIIDEMFLFENLVDVDDRSIQRLLQEVDSESLLIALKGAEPPLREKFLRNMSQRAADILRDDLANRGPVRLSQVENEQKAILLIVRRLAETGEMVIGSGEDTYV
notes: FliG, Salmonella enterica, C ring protein; also called His-FliG; source: Salmonella SJW1368, pTrc99A-based plasmid, in DDM-solubilised membranes; not shown: His tag, C-terminal, kept
B2: FliF (natural protein)
chain: MSATASTATQPKPLEWLNRLRANPRIPLIVAGSAAVAIVVAMVLWAKTPDYRTLFSNLSDQDGGAIVAQLTQMNIPYRFANGSGAIEVPADKVHELRLRLAQQGLPKGGAVGFELLDQEKFGISQFSEQVNYQRALEGELARTIETLGPVKSARVHLAMPKPSLFVREQKSPSASVTVTLEPGRALDEGQISAVVHLVSSAVAGLPPGNVTLVDQSGHLLTQSNTSGRDLNDAQLKFANDVESRIQRRIEAILSPIVGNGNVHAQVTAQLDFANKEQTEEHYSPNGDASKATLRSRQLNISEQVGAGYPGGVPGALSNQPAPPNEAPIATPPTNQQNAQNTPQTSTSTNSNSAGPRSTQRNETSNYEVDRTIRHTKMNVGDIERLSVAVVVNYKTLADGKPLPLTADQMKQIEDLTREAMGFSDKRGDTLNVVNSPFSAVDNTGGELPFWQQQSFIDQLLAAGRWLLVLVVAWILWRKAVRPQLTRRVEEAKAAQEQAQVRQETEEAVEVRLSKDEQLQQRRANQRLGAEVMSQRIREMSDNDPRVVALVIRQWMSNDHE
notes: FliF, Salmonella enterica, transmembrane protein that forms the MS ring; also called MS ring; source: Salmonella SJW1368, pTrc99A-based plasmid, in DDM-solubilised membranes
B3: HA-FliQ (natural protein)
chain: MTPESVMMMGTEAMKVALALAAPLLLVALITGLIISILQAATQINEMTLSFIPKIVAVFIAIIVAGPWMLNLLLDYVRTLFSNLPYIIG
notes: FliQ, Salmonella enterica, transmembrane export gate protein; source: Salmonella SJW1368, pTrc99A-based plasmid, in DDM- or LMNG-solubilised membranes; co-purified
B4: His-St-FliP (Salmonella FliP with a hexahistidine tag inserted between Gln-22 and Leu-23) (natural protein)
chain: QLPGLISQPLAGGGQSWSLSVQTLVFITSLTFLPAILLMMTSFTRIIIVFGLLRNALGTPSAPPNQVLLGLALFLTFFIMSPVIDKIYVDAYQPFSEQKISMQEALDKGAQPLRAFMLRQTREADLALFARLANSGPLQGPEAVPMRILLPAYVTSELKTAFQIGFTIFIPFLIIDLVIASVLMALGMMMVPPATIALPFKLMLFVLVDGWQLLMGSLAQSFYS
notes: FliP, Salmonella enterica, 25-kDa transmembrane protein; mature form studied; the signal peptide (Met-1 to Gln-22) is cleaved during membrane insertion; tag LHHHHHH inserted between Gln-22 and Leu-23; Hexameric ring in SEC peak 2; also called His-FliP; FliP6 ring; source: Salmonella SJW1368, membranes solubilised with 1% DDM or 1% LMNG; purified (Ni-NTA, SEC); not shown: His6 (LHHHHHH), internal …

The series “FliF” addresses B2. Description: pull-down; Ni affinity copurification with FliG-His from SJW1368 co-expressing FlhA, FlhB, FliF, FliG-His, FliO, FliP, HA-FliQ and FliR-FLAG; membranes solubilised with 1% DDM. The following applies: partners not purified.
The target of series [1] is T1, FlhA. Description: SEC; Ni-purified FlhA/FliF/FliG-His complex on Superdex 200 10/300 (DDM); main peak examined by negative-stain EM. The conditions noted are these: both partners purified.
Series [2] deals with the molecule itself. The series is described as follows: negative-stain electron microscopy with 2D class averaging; purified SEC peak fractions, 1.0% uranyl acetate, 100 kV; autocorrelation analysis for the rotational symmetry of the FliP ring.
Series [3] has as its target B4. Description: pull-down; Ni-NTA copurification with His-FliP from SJW1368 co-expressing FlhA, FlhB, FliO, His-FliP, HA-FliQ and FliR-FLAG; membranes solubilised with 1% LMNG; immunoblot (lane L of Fig 6B). The conditions noted are these: partners not purified. (A western blot detects proteins with antibodies after separation by electrophoresis.)
Series [4] concerns the molecule itself. Description: SEC; Ni-purified His-FliP or FliO/His-FliP complexes (wild type and mutants) on Superdex 200 10/300; 20 mM Tris-HCl pH 8.0, 300 mM NaCl, 2 mM EDTA, 5% glycerol, 0.1% DDM. (In general: In gel filtration, larger molecules generally elute earlier.)
For another series, the target named is T2, FlhB. The series is described as follows: pull-down; copurification from Salmonella SJW1368 co-expressing His-FliP with other export gate proteins; membranes solubilised with 1% DDM; Ni affinity, then anti-FLAG M2 affinity (eluted with FLAG peptide), then SEC on Superdex 200 10/300; SDS-PAGE with CBB. The following applies: partners not purified.
A further series deals with T3, FliR-FLAG. Described as above. The conditions noted are these: partners not purified.
The target of series [5] is T1, FlhA. Description: pull-down; Ni-NTA copurification with His-FliP from SJW1368 co-expressing FlhA, FlhB, FliO, His-FliP, HA-FliQ and FliR-FLAG; membranes solubilised with 1% LMNG; immunoblot (lane L of Fig 6B). The following applies: partners not purified.

For the molecule B1, the binding result with FliF was “binds”.
For B2, the binding result (in the series with FlhA [1]; in series [2]) was “binds” each time.
On to B3, for which, in series [3], the binding result is given as “binds”.
As usually defined, the stoichiometry N is the number of molecules, sites or subunits per partner or assembly. For B4, the “stoichiometry N” value in series [4] is 2; in series [2] it was 6. The binding result in the series with FlhB, with FliR-FLAG and in the series with FlhA [5] was “binds” throughout.

The values are drawn from paper PMC5542437, “Assembly and stoichiometry of the core structure of the bacterial flagellar type III export gate complex” (PLoS Biology, 2017).
